Paper PMC4749439 (Cell metabolism, 2015)
Positions count from the first letter of the chain named. In names and notes the source's numbering stands. No end group written: not given here.

T1: S^35-SDHB (human, UniProt P21912 1-280, S^35 label)
T1 sequence (looked up): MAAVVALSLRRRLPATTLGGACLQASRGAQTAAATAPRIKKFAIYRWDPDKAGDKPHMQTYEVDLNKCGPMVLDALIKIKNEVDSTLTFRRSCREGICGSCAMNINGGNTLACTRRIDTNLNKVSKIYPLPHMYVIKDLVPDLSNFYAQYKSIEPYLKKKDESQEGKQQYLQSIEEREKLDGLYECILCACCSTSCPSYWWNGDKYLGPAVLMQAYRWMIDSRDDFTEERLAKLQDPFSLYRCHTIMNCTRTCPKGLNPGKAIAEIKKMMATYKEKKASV

T2: S^35-HSC20 (UniProt Q8IWL3 1-235, S^35 label)
T2 sequence (looked up): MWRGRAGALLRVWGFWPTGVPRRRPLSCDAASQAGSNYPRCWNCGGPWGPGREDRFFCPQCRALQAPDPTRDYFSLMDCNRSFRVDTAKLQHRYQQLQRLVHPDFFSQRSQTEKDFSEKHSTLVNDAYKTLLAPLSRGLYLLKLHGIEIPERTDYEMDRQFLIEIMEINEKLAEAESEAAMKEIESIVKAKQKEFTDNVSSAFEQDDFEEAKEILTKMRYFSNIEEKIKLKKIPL

B1: SDHAF1 clone 5 (residues 61–115) (domain or fragment, human, UniProt A6NFY7 61-115, looked up)
chain: LQLLRSGHATAMGAFVRPRAPTGEPGGVGCQPDDGDSPRNPHDSTGAPETRPDGR
modifications: also: 35S label
B2: SDHAF1 clone 4 (residues 50–115) (domain or fragment, human, UniProt A6NFY7 50-115, looked up)
chain: IEYLYRRGRRQLQLLRSGHATAMGAFVRPRAPTGEPGGVGCQPDDGDSPRNPHDSTGAPETRPDGR
modifications: also: 35S label
B3: SDHB146-218 (domain or fragment, human, UniProt P21912 146-218, looked up)
chain: FYAQYKSIEPYLKKKDESQEGKQQYLQSIEEREKLDGLYECILCACCSTSCPSYWWNGDKYLGPAVLMQAYRW
B4: S^35-labeled FLAG-tagged SDHAF1 wild type (in vitro) (natural protein, human, UniProt A6NFY7 1-115, looked up)
chain: MSRHSRLQRQVLSLYRDLLRAGRGKPGAEARVRAEFRQHAGLPRSDVLRIEYLYRRGRRQLQLLRSGHATAMGAFVRPRAPTGEPGGVGCQPDDGDSPRNPHDSTGAPETRPDGR
modifications: S^35 label
B5: SDHAF1 G57R (in vitro) (natural protein, human, UniProt A6NFY7 1-115, looked up)
chain: B4 chain with G57R
modifications: S^35 label
B6: SDHAF1 second LYR to triple alanines (in vitro) (natural protein, human, UniProt A6NFY7 1-115, looked up)
chain: B4 chain with L53A, Y54A, R55A
modifications: S^35 label
B7: SDHAF1 clone 2 (residues 40–115) (domain or fragment, human, UniProt A6NFY7 40-115, looked up)
chain: AGLPRSDVLRIEYLYRRGRRQLQLLRSGHATAMGAFVRPRAPTGEPGGVGCQPDDGDSPRNPHDSTGAPETRPDGR
modifications: S^35 label

How the values were obtained:
Assay in all cases: pull-down
S^35-SDHB = target: T1, S^35-SDHB
[1] = target: B4
S^35-HSC20 = target: T2, S^35-HSC20

| binding result (S^35-SDHB) | binding result (S^35-HSC20) | Binder | also measured |
| --- | --- | --- | --- |
| binds |  | B1 |  |
| binds |  | B2 |  |
|  |  | B3 | binding result [1]: binds |
|  | binds | B4 |  |
|  | binds | B5 |  |
|  | binds | B6 |  |
|  | binds | MSRHSRLQRQVLSLYRDLLRAGRGKPGAEARVRAE (domain or fragment, human, UniProt A6NFY7 1-35, looked up, also: 35S label) [SDHAF1 clone 3 (residues 1–35)] |  |
| binds |  | B7 |  |
|  | binds | MSRHSRLQRQVLSLYRDLLRAGRGKPGAEARVRAEFRQH (domain or fragment, human, UniProt A6NFY7 1-39, looked up, also: 35S label) [SDHAF1 clone 1 (residues 1–39)] |  |
